Holding throughout (assay): SPR
Assay [1] deals with T1, ALK1 extracellular domain (ALK1 ECD) (human, UniProt P37023 22-118).
Assay [2] has as its target T2, ALK1-Fc (ALK1 extracellular domain-Fc fusion protein) (UniProt P37023 22-118).
Assay [3] addresses T1, ALK1 extracellular domain (ALK1 ECD). The source holds these as a separate data set.
For assay [4], the target named is T2, ALK1-Fc (ALK1 extracellular domain-Fc …). This is another data set of the same source.
Assay [5] concerns the target T3, ALK2-Fc (UniProt Q04771 21-123).
T3 chain: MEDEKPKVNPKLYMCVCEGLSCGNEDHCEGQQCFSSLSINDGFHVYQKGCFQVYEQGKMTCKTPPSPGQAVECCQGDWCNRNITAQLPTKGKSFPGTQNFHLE

Values joined by “and” are separate entries in the source; they are usually repeats but may differ in a detail not shown here. Equal entries are not always repeated.

T1 sequence (P37023 22-118): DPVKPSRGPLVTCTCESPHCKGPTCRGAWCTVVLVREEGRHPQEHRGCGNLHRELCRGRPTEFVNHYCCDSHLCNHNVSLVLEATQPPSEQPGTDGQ
T2 sequence (P37023 22-118): as above

B1: pro-BMP10 (prodomain-bound BMP10) (complex)
chain 1: SPIMNLEQSPLEEDMSLFGDVFSEQDGVDFNTLLQSMKDEFLKTLNLSDIPTQDSAKVDPPEYMLELYNKFATDRTSMPSANIIRSFKNEDLFSQPVSFNGLRKYPLLFNVSIPHHEEVIMAELRLYTLVQRDRMIYDGVDRKITIFEVLESKGDNEGERNMLVLVSGEIYGTNSEWETFDVTDAIRRWQKSGSSTHQLEVHIESKHDEAEDASSGRLEIDTSAQNKHNPLLIVFSDDQSSDKERKEELNEMISHEQLPELDNLGLDSFSSGPGEEALLQMRSNIIYDSTARIRR
chain 2: NAKGNYCKRTPLYIDFKEIGWDSWIIAPPGYEAYECRGVCNYPLAEHLTPTKHAIIQALVHLKNSQKASKACCVPTKLEPISILYLDKGVVTYKFKYEGMAVSECGCR
modifications: furin-processed; prodomain non-covalently bound to the disulfide-linked GF-domain dimer; secreted from HEK EBNA cells. Limits are from the UniProt PROPEP and CHAIN features.
Turning to B1, the koff in assay [1] is 5.63e-05 s⁻¹; in assay [2], 3.44e-05 s⁻¹. Also, the Kd in assay [3] is 17 pM; in assay [4], 18.7 pM and 11.2 pM.

B2: BMP10 GF-domain (bone morphogenetic protein 10 growth factor domain) (ligand)
chain: NAKGNYCKRTPLYIDFKEIGWDSWIIAPPGYEAYECRGVCNYPLAEHLTPTKHAIIQALVHLKNSQKASKACCVPTKLEPISILYLDKGVVTYKFKYEGMAVSECGCR
Turning to B2, the koff was determined as 8.5e-05 s⁻¹ in assay [1] and 5.31e-05 s⁻¹ in assay [2]. Besides, binding in assay [3] was characterised by a dissociation constant (Kd) of 55.7 pM.

B3: BMP9 GF-domain (bone morphogenetic protein 9 growth factor domain) (ligand)
chain: SAGAGSHCQKTSLRVNFEDIGWDSWIIAPKEYEAYECKGGCFFPLADDVTPTKHAIVQTLVHLKFPTKVGKACCVPTKLSPISVLYKDDMGVPTLKYHYEGMSVAECGCR
On to B3, for which the koff in assay [1] came to 8.37e-05 s⁻¹; in assay [2], 6.19e-05 s⁻¹. The molecule further had a Kd in assay [3] of 71.6 pM.

B4: pro-BMP9 (prodomain-bound BMP9) (complex)
chain 1: KPLQSWGRGSAGGNAHSPLGVPGGGLPEHTFNLKMFLENVKVDFLRSLNLSGVPSQDKTRVEPPQYMIDLYNRYTSDKSTTPASNIVRSFSMEDAISITATEDFPFQKHILLFNISIPRHEQITRAELRLYVSCQNHVDPSHDLKGSVVIYDVLDGTDAWDSATETKTFLVSQDIQDEGWETLEVSSAVKRWVRSDSTKSKNKLEVTVESHRKGCDTLDISVPPGSRNLPFFVVFSNDHSSGTKETRLELREMISHEQESVLKKLSKDGSTEAGESSHEEDTDGHVAAGSTLARRKR
chain 2: SAGAGSHCQKTSLRVNFEDIGWDSWIIAPKEYEAYECKGGCFFPLADDVTPTKHAIVQTLVHLKFPTKVGKACCVPTKLSPISVLYKDDMGVPTLKYHYEGMSVAECGCR
On to B4, for which the koff in assay [1] came to 8.46e-05 s⁻¹; in assay [2] it was 4.84e-05 s⁻¹. Besides, the Kd in assay [3] was 92.9 pM; in assay [4] it was 39.2 pM and 61.2 pM; in assay [5], 86200 pM.

B5: BMP6-GF WT (protein)
chain: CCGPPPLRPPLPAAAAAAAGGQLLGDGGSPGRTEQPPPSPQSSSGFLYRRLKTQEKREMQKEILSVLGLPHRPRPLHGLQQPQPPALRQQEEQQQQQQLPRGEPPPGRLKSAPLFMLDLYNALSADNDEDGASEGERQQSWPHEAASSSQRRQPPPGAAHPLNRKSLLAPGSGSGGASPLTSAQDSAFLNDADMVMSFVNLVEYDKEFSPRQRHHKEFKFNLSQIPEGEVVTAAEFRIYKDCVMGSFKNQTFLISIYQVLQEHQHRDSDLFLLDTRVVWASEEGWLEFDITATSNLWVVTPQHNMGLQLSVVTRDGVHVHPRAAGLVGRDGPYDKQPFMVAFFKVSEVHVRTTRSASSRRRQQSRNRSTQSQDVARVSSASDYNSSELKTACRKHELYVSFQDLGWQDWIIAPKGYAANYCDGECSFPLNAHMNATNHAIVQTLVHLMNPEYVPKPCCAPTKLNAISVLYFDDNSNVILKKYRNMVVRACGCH
modifications: disulfide-linked GF-domain homodimer. The text gives no BMP6 construct, source or limits (named only in a figure), so the human mature chain is assumed.
The molecule B5 came in with a Kd in assay [5] of 19200 pM.

Source of the values: PMC7113306 (2020).
